Test: soluble on expression in E. coli; label from the status in PepcDB or PDB records
In the case of “MGSDKIHHHHHHMWITINRNSNISLSRQIYCEIKDMILDGSLKFEQKLPSSRTLSKELSVSRNTVLDAYNQLIAEGYLETRNGYGTIVAKGISGHKVDFKLNDTFRDEKDLHTNKQKNYIDFRSGVPELKLFPRKELSKLYKQILYDLSDSDFRYGSTAGVWVLRVEISKYLFRTRGIRCNPKNIMIVSGSTQGLSLISQLLYKSNKKVAVEDPIHKGLLKVISSIGYSVVGIKVDDKGMNTNLIKSIKGISFVYTTPSHQYPLGGILPIQRRLELIKCATENDYYIIEDDYDSEFRYEGQPISSLYELSPNKVIYIGSFSKILSPAIRVGFMLLPDNILESYKTLKMYSDVHTETILQHVLAEFIGNGGLEKYIFRMKKLYNRKRKYLIKVLNTEFKNEFKIKGEAAGLHIVAHFYNVKFTESLIHKIFEAGIKVYPIQQYAIENILEYDHEIILGYAHLSFDEIEKGVKILSKIIHMNQGT”, the “soluble on expression in E. coli” value is reported as “not soluble”. With “MFQKLLAFLTVVVFVSAAGNSCKIGKVINKPVIDGTPVYWPASWNETQPAPQLEKEQSCSWYVTIPRGYYAKLIISGKTTDKDSRFQTVDSAGNLIQTTHEKMVPYYFPASKFTLAVSNEGSATFAFKVVWWPLPTEKYVDIVASIGQVINVTETVVAMEYAAPGGITLLTFPEDLKNYNSLRSTLIYDGSSLTSATYVSNLFLLNQSKKQWTSSQDGIVVVNVEASRSMNKLLIQGSVYLAGIDEIVELHPQPNSIYNGTVNAGAHMSSLVAVSDLELQMIDVQMKDDSTVSVYYGSPDAFTLDKTYTGAELKKALPLPFGGYFVQFVVSSGKAVFTFKS” the “soluble on expression in E. coli” value was “not soluble”. For “MEKPTRLALLKEIAEFLNEETEIYSMMQGALRLLINGSDFSTGWIFYIDEEGHHDLVSSVDLPEALSKNHCYYLTNGSCWCVQAYQNHKLTKASNIINCSRINLANHAYDKETNHITHHATVPLQSGSERFGLLNVASPNKEHYSEEDLELLESVAFQIGSAIKRIQLTNKEKENAKINERNRLARDLHDSVNQMLFSLKLTAHAAKGITTDEQAQRAFKTIEETSQNAVNEMRALIWQLKPVGLEQGLIHALHYYSKMLGLDLKVTINGLIDLSNDIEENVYRIIQEAMNNVIKHAKTNKVYLDLSQNVDYLEVDIRDNGQGFDTQSINTFLFNGLKNIKQRTQYLNGKVTIESKINQGTRIYIKIPLKLKEHPYA”, the “soluble on expression in E. coli” value was “not soluble”. In the case of “SAKTDKLAQFLDSGIYESDEFNWFFLDTVRITNRSYTRFKVSPSAYYSRFFNSKQLNQHSSESNPKKRKRKQKNSSFHLPSVGEQASNLRHQEARLFLSKAHESFLKEIELLSLTKGLSDDNDDDDSSLLNKCCDDEVSFIELGGVWQAPFYEITLSFNLHCDNEGESCNEQRVFQVFNNLVVNEIGEEVEAEFSNRRYIMPRNSCFYMSDLHHIRNLVPEKISHYHIGRRCNSLIDVIYAAKSEEGYNLIVIDPPWENASAHQKSKYPTLPNQYFLSLPIKQLAHAEGALVALWVTNREKLLSFVEKELFPAWGIKYVATMYWLKVKPDGTLICDLDLVHHKPYEYLLLGYHFTELAGSEKRSDFKLLDKNQIIMSIPGDFSRKPPIGDILLKHTPGSQPARCLELFAREMAAGWTSWGNEPLHFQDSRYFLKV”, the “soluble on expression in E. coli” value is reported as “soluble”. In the case of “MEDDDLLPLSALQHYLYCPRQCALIHLEQQWEDNAQTAEGRLLHERADKPAMETRRGVRTASAMALASPRLGIAGVADIVEFHDWSDGERAYPVEYKRGRPKAHRADEVQLCAQALCLEDMLGAAIPEGALYYGKTRRRRPVAFDNALRRLTLETIAAARAMFDSRQTPRMGYEARRCDACSLLERCQPRLLDRAQSVDQWLKQQWDALEHHHHHH”, the “soluble on expression in E. coli” value is reported as “not soluble”. In the case of “MPPKLRNFDKSMEKYTDVVLVVKQERFYVSRAILSEHCTYFQSLFCGDSNYQEHIISDVEPQDFQKFLEVVHGEPAIFEATVQKILPLAQKFGSKTVLQKCERFLITISTVRLSTKWNLAKQYGLDELQAHCKLEFKTAQIVRKNPQPEPKSLAYSDKFIFDHSFEKVDGLAEGDMRRSQPITHLDFTWTIYITRKNQHLRVSLCCGKAHLTSDWTVRADFKMTLTAKGSPDLVSDTKGFFHLDSEKNFYWELGQEVEWDEIRDKCLADGKLEVETRVRIVKIRELPVEEFKPPRIVTVNAVKSYEGVLSDYIRVTPLTQQAKTSAPAETPDLQTPPRQQASAKPQASPAKSAGAPQLPQKVPLFPSGGAPSSPSAPEAPSEPPPPKIYPTLGANAPPAPPVQGKKFILKNVFGNVEAMKCHTAMACQKAVAYDFEWNLIISQKNNRLHVSLCCSKSNVTSEFRILADFELIIAGKNGGRPLKSKTNGCFNIEKTKNSSQELGQDVEWSTIVYDYMVDGRLTVEAHVNITRVTCLDAPKFKKLRNFDATGNSWDVMLIVAGQRFFVLKEILISNSARFKNIISKINFTAAPSTEIKLPDSSADHFQNFLEACYGDPSINDDTVHGILKIAQSYEAAGIVKRCEEYVIKYSKKTLEQKEKLAKHHNLKTLKAHCDYWKSRRKCC”, the “soluble on expression in E. coli” value is reported as “not soluble”. For “MATTCQKRRYGTFRTGISKPGLSTRRFQHRDFSHGDFGTGTFRTAVSPPLTFSSPPTSTVATPYFPMRFINVKSHVSRPPPLHGDIPIGHEGTRVSRHVDDRCGLVVVSRHGRAGGCLSRLEHHHHHH”, the “soluble on expression in E. coli” value was “not soluble”. With “PTSSTTAALVMGDALAVALLEARGFTAEDFALSHPGGALGRKLLLRVNDIMHTGDEIPHVGLQATLRDALLEITRKNLGMTAICDDDMNIIGIFTDGDLRRVFDTGVDMRDASIADVMTRGGIRIRPGTLAVDALNLMQSRHITCVLVADGDHLLGVVHMHDLLRA” the “soluble on expression in E. coli” value was “soluble”. In the case of “MALPQRQIVRAENVKIGISWQCALCDLDIYARPLPGAEVIYFGRMVTTHGRYWKDYRNSPQPTNGYETISFDVPLDLRPVVIAINFYEGEAPQGVSGEIRIAVDENTYAAPFHISATRGNRGQGVAKIIETGKASGNHSVIVDPLHIIRAR”, the “soluble on expression in E. coli” value is reported as “not soluble”. With “MGSDKIHHHHHHMYLLVDVGNTHSVFSITEDGKTFRRWRLSTGVFQTEDELFSHLHPLLGDAMREIKGIGVASVVPTQNTVIERFSQKYFHISPIWVKAKNGCVKWNVKNPSEVGADRVANVVAFVKEYGKNGIIIDMGTATTVDLVVNGSYEGGAILPGFFMMVHSLFRGTAKLPLVEVKPADFVVGKDTEENIRLGVVNGSVYALEGIIGRIKEVYGDLPVVLTGGQSKIVKDMIKHEIFDEDLTIKGVYHFCFGD” the “soluble on expression in E. coli” value was “not soluble”. For “MNKRENPIYKVIFLNQGQVFEMYAKQIYQSDLWGFLEIEEFVFGERTQVVVDPSEEKLKAQFEGVLRSFVPMHAIVRIDEVERLGTPKISEAKGAGNVMPFPMPMPGKSD”, the “soluble on expression in E. coli” value was “not soluble”. For “MGSDKIHHHHHHMRLLDLYLTLRLALSTAVHTLAGRVKGRSYVPHPRTMLFIEPTSHCNLECSFCTYRLDRHPRLTLDMERFEDYVAQARAMGFADMVLTPINGDVFMDRTILDKLRLLDRLKDGPGIILYTNLIGASAEQLGEILALARLKMFQVSIYGHDFETFRRITGRGQVQFRRLLANLETIADLVAQGVVPQALSICVRTERHYRLEDEASGELHVLLRRLISLGIPVSVQSCLDDWGGLVAETDLDGLDMPLIRGRLIPKNGACIEPFYNVQILADGRVNACACRSVGEDLIIGDLRQDDLKTILSARNPAYTGLIERQQKGDFPQTCRGCSFYRSIYDRRIRNASPLGHMSLEQFHTFLSRE”, the “soluble on expression in E. coli” value was “not soluble”. For “MKSNHYMSIMEEFYMDKNLLEITGYDGEGYVPLIDYSHWRVAELRYCEELEVDKLKDMQKHDETDEVFVLLEGDFTLFLGGNGEHIGEIEAIKLEPLKLYNVKRGTYHTHTPEKNSTVLIVENVDTTDDNSPKEKLTLEQKKIIEKLYKEVNS”, the “soluble on expression in E. coli” value was “not soluble”. With “MSLIKVLIVEDDPMVAMLNAHYLEQVGGFELVQAVNSVKSAIEVLEESRIDLVLLDIFMPEETGFELLMYIRNQEKEIDIMMISAVHDMGSIKKALQYGVVDYLIKPFTFERFKEALTIYREKLTFMKEQQKISQSELDSLILQKEKREPTVTKELPKGLTKQTLQLIWQKIELLNGRAFTTDEMSQLVGISRVSIRKYVMFLTDIGVLENEMMYQHVGRPVSKLRCVDQKKIEFYVEGHHHHHH” the “soluble on expression in E. coli” value was “soluble”.
